According to patent US20260210971A1 (Pfizer, published 2026):
Where two headings read alike, the source gives them in different places. One block for each binder: values may come before it.

B10: recombinant soluble human TL1A (ligand)
chain: ALKGQEFAPSHQQVYAPLRADGDKPRAHLTVVRQTPTQHFKNQFPALHWEHELGLAFTKNRMNYTNKFLLIPESGDYFIYSQVTFRGMTSECSEIRQAGRPNKPDSITVVITKVTDSYPEPTQLLMGTKSVCEVGSNWFQPIYLGAMFSLQEGDKLMVNVSDISLVDYTKEDKTFFGAFLL

Legend:
[1] = target: B10; test: cell-based or functional assay
[2] = target: T1, endogenous TL1A of stimulated human peripheral blood (human, UniProt O95150 72-251, limits assumed); test: cell-based or functional assay
T1 sequence (looked up): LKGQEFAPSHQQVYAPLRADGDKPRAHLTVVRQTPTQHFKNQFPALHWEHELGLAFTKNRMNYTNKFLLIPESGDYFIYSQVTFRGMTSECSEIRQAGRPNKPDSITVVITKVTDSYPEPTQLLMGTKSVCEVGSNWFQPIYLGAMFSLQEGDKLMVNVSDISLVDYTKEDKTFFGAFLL

[3] = target: B10; test: KinExA, equilibrium in solution
[4] = target: T2, recombinant soluble cynomolgus monkey TL1A (cynomolgus monkey, UniProt O95150 72-251 (human entry)); test: SPR, IgG captured on anti-hIgG, TL1A injected;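 for koff: biacore surface plasmon resonance on a dextran sensor chip, double-referenced sensorgrams fitted to a one-to-one binding model, KD taken as dissociation over association rate constant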;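 for kon: biacore surface plasmon resonance on a dextran sensor chip, double-referenced sensorgrams fitted to a one-to-one binding model, KD taken as dissociation over association rate constant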;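 for t1/2: biacore surface plasmon resonance on a dextran sensor chip, double-referenced sensorgrams fitted to a one-to-one binding model, KD taken as dissociation over association rate constant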
T2 construct: also called cyno rsTL1A; cyno TL1A
T2 chain: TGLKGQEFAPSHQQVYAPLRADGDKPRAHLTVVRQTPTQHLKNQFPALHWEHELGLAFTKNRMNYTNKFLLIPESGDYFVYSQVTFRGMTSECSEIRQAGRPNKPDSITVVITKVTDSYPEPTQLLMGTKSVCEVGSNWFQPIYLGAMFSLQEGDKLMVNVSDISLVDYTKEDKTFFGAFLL

[5] = target: T3, recombinant soluble murine TL1A (mouse, UniProt Q5UBV8 75-252); test: SPR, IgG captured on anti-hIgG, TL1A injected;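 for koff: biacore measurement on a carboxymethylated dextran chip, double-referenced against a control surface and buffer, rates fitted to a one-to-one binding model, KD from koff over kon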;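 for kon: biacore measurement on a carboxymethylated dextran chip, double-referenced against a control surface and buffer, rates fitted to a one-to-one binding model, KD from koff over kon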
T3 construct: also called murine rsTL1A; mouse TL1A
T3 chain: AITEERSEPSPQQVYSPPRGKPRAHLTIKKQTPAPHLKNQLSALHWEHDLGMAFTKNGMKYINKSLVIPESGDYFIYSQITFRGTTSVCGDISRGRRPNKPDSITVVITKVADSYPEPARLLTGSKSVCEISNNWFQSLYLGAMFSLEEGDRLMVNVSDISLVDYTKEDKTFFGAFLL

[6] = target: T4, recombinant soluble rat TL1A (rat, UniProt Q8K3Y7 76-252); test: SPR, IgG captured on anti-hIgG, TL1A injected
T4 construct: also called rat rsTL1A
T4 sequence: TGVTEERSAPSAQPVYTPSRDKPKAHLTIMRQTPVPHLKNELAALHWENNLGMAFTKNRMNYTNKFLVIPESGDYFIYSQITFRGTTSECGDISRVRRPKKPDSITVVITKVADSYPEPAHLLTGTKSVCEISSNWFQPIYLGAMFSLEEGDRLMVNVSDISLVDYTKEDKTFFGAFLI
Description: (§1) The antibodies were captured via directly immobilized anti-human IgG (GE Healthcare) onto a carboxymethylated dextran sensor chip surface (CM5) using a Biacore T100 or T200 instrument. Anti-human IgG was immobilized through amine coupling to densities of approximately 4,000-13,000 response units (RU). […] At the end of each cycle, the entire anti-hIgG surface was regenerated by a 30-second pulse of 3M MgCl₂ followed by two consecutive 15-second pulses of PBS-NET. […] All injections were performed at 25° C. at a collection rate of 10 Hz. All sensorgrams were double referenced by using both a control surface and buffer injections. Rate constants were determined by fitting the data to a 1:1 model in Biacore T100, T200 evaluation software v1.0, or BIAevaluation software v4.1.1 and the equation KD=Kd/kₐ.
(§2) At the highest cytokine concentrations, the dissociation phase was sometimes extended to 60 minutes to achieve at least a 5% decrease in binding signal.

[7] = target: T5, recombinant soluble rabbit TL1A (rabbit); test: SPR, IgG captured on anti-hIgG, TL1A injected
T5 construct: also called rabbit rsTL1A
T5 chain: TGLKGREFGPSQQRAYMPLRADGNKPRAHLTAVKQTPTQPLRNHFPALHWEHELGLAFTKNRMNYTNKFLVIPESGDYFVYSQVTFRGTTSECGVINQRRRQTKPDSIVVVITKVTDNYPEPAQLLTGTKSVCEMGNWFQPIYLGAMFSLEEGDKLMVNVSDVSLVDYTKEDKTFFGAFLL
Description: as §1, §2

[8] = target: B10; test: SPR, IgG captured on anti-hIgG, TL1A injected; off rate too slow to measure;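 for koff: biacore T-200 with CM5 chip, anti-human IgG surface capturing under 30 RU of IgG, reference flow cell subtracted, running buffer PBS with 300 mM NaCl, EDTA and Tween20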
[9] = target: B10; test: binding test of the 1D1 point mutants, method not named
[10] = target: B10; test: SPR, IgG captured on anti-hIgG, TL1A injected;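 for koff: biacore T-200 with CM5 chip, anti-human IgG surface capturing under 30 RU of IgG, reference flow cell subtracted, running buffer PBS with 300 mM NaCl, EDTA and Tween20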
Protocol: Biacore analysis was performed using T-200 biosensor, series S CM5 chips and approximately 4000 RU (response units) of an anti-human IgG (GE Healthcare), immobilized in 10 mM sodium acetate immobilization buffer at pH 5.0. Assay conditions were established to minimize the influence of mass transfer, avidity, and rebinding events, as described below. A blank immobilization was carried out on a separate flow cell for reference subtraction. The purified IgGs were diluted in running buffer (PBS, 300 mM sodium chloride, 3.2 mM ethylenediaminetetraacetic acid, 0.01% Tween20) and low levels (<30 RU) captured using a flow rate of 100 μl/min for 2 min, to reduce possible rebinding by the trimeric TL1A. […] Reference-subtracted sensorgrams for each concentration were analyzed using Biacore T-200 evaluation software (v1.0).

[11] = target: B10; test: SPR, IgG captured on anti-hIgG, TL1A injected; remark: listed apart in the source;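 for koff: biacore T-200 with CM5 chip, anti-human IgG surface capturing under 30 RU of IgG, reference flow cell subtracted, running buffer PBS with 300 mM NaCl, EDTA and Tween20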
[12] = target: T2, recombinant soluble cynomolgus monkey …; test: SPR, IgG captured on anti-hIgG, TL1A injected;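 for koff: biacore T-200 with CM5 chip, anti-human IgG surface capturing under 30 RU of IgG, reference flow cell subtracted, running buffer PBS with 300 mM NaCl, EDTA and Tween20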
[13] = target: T3, recombinant soluble murine TL1A; test: SPR, IgG captured on anti-hIgG, TL1A injected;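 for koff: biacore measurement on a carboxymethylated dextran chip, double-referenced against a control surface and buffer, rates fitted to a one-to-one binding model, KD from koff over kon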;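 for kon: biacore measurement on a carboxymethylated dextran chip, double-referenced against a control surface and buffer, rates fitted to a one-to-one binding model, KD from koff over kon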
DR3 on TF-1 cells = target: T6, DR3 on TF-1 cells (human, UniProt Q93038 25-417); test: cell-based or functional assay
T6 sequence (looked up): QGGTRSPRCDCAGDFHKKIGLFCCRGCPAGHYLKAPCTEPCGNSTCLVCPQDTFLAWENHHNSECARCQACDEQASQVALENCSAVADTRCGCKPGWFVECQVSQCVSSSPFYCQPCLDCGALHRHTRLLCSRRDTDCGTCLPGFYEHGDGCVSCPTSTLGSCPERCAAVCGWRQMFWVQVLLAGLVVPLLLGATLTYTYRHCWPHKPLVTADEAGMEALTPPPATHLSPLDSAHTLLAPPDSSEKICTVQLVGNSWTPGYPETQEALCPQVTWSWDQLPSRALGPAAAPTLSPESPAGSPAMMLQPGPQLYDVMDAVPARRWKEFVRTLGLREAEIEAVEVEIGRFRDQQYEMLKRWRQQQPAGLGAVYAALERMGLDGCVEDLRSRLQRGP

Caspase Assay, average IC50 [1]: 70.2 pM | NFkB Assay, average IC50 [1]: 140 pM | HWB Assay, average IC50 [2]: 0.968 pM | Kd [3]: 7.69 pM | Kd [4]: 220 pM | koff [4]: 8e-05 s⁻¹ | kon [4]: 390000 M⁻¹ s⁻¹ | t1/2 [4]: 141 min | Kd [5]: 1640 pM | koff [5]: 0.00043 s⁻¹ | kon [5]: 270000 M⁻¹ s⁻¹ | t1/2 [5]: 26.9 min | Kd [6]: 10900 pM | koff [6]: 0.0072 s⁻¹ | kon [6]: 670000 M⁻¹ s⁻¹ | t1/2 [6]: 1.6 min | Kd [7]: 478 pM | koff [7]: 0.00014 s⁻¹ | kon [7]: 300000 M⁻¹ s⁻¹ | t1/2 [7]: 82.1 min | Kd [8]: < 100 pM
B1: 1D1 1.27 (antibody, human IgG1, kappa, V domains shown)
VH: QVQLVQSGAEVKKPGASVKVSCKASGYDFTYYGISWVRQAPGQGLEWMGWISTYNGNTHYARMLQGRVTMTTDTSTRTAYMELRSLRSDDTAVYYCARENYYGSGSYRGGMDVWGQGTTVTVSS
VL: EIVLTQSPATLSLSPGERATLSCRASQSVSSYLAWYQQKPGQAPRLLIYDASNRATGIPARFSGSGSGTDFTLTISSLEPEDFAVYYCQQRSNWPWTFGQGTKVEIKR
notes: Expressed as IgG1

Kd [10]: 326 pM | koff [10]: 0.00035 s⁻¹ | kon [10]: 1.26e+06 M⁻¹ s⁻¹ | Kd [11]: 305 pM | Kd [12]: 335 pM | Kd [13]: 787 pM
B3: 1D1 D37 (antibody, IgG1, V domains shown)
VH: QVQLVQSGAEVKKPGASVKVSCKASGYSFTYYGISWVRQAPGQGLEWMGWISTYNGGTHYARMLQGRVTMTTDTSTRTAYMELRSLRSDDTAVYYCARENYYGSGSYRGGMDVWGQGTTVTVSS
VL: EIVLTQSPATLSLSPGERATLSCRASQSVSSYLAWYQQKPGQAPRLLIYDASNRATGIPARFSGSGSGTDFTLTISSLEPEDFAVYYCQQRSNWPWTFGQGTKVEIKR
notes: same light chain as 1D1; also called 1D1-VH-37

Kd [9]: 6800 pM
B6: 1D1 with heavy chain mutation S28Q (antibody, V domains shown)
VH: QVQLVQSGAEVKKPGASVKVSCKASGYQFTYYGISWVRQAPGQGLEWMGWISTYNGNTNYARMLQGRVTMTTDTSTRTAYMELRSLRSDDTAVYYCARENYYGSGSYRGGMDVWGQGTTVTVSS
VL: EIVLTQSPATLSLSPGERATLSCRASQSVSSYLAWYQQKPGQAPRLLIYDASNRATGIPARFSGSGSGTDFTLTISSLEPEDFAVYYCQQRSNWPWTFGQGTKVEIK
notes: Point mutant of 1D1 CDR-H1

The next lines start with the binder.

B2: 1D1 with heavy chain mutation S28D (antibody, V domains shown)
VH: QVQLVQSGAEVKKPGASVKVSCKASGYDFTYYGISWVRQAPGQGLEWMGWISTYNGNTNYARMLQGRVTMTTDTSTRTAYMELRSLRSDDTAVYYCARENYYGSGSYRGGMDVWGQGTTVTVSS
VL: EIVLTQSPATLSLSPGERATLSCRASQSVSSYLAWYQQKPGQAPRLLIYDASNRATGIPARFSGSGSGTDFTLTISSLEPEDFAVYYCQQRSNWPWTFGQGTKVEIK
notes: Point mutant of 1D1 CDR-H1
Kd [9]: 420 pM

B4: 1D1 D39 (antibody, V domains shown)
VH: QVQLVQSGAEVKKPGASVKVSCKASGYSFTYYGISWVRQAPGQGLEWMGWISTYNGNTNYARMLQGRVTMTTDTSTRTAYMELRSLRSDDTAVYYCARENYYGSGAYRGGMDAWGQGTTVTVSS
VL: EIVLTQSPATLSLSPGERATLSCRASQSVSSYLAWYQQKPGQAPRLLIYDASNRATGIPARFSGSGSGTDFTLTISSLEPEDFAVYYCQQRSNWPWTFGQGTKVEIKR
notes: IgG with triple mutant Fc as for 1D1 D37
Kd [10]: 442 pM | koff [10]: 0.000355 s⁻¹ | kon [10]: 784000 M⁻¹ s⁻¹ | Kd [11]: 441 pM | Kd [12]: 396 pM | Kd [13]: 613 pM

B5: 1D1 D24 (antibody, V domains shown)
VH: QVQLVQSGAEVKKPGASVKVSCKASGYSFTYYGISWVRQAPGQGLEWMGWISPYNGNTHYARMLQGRVTMTTDTSTRTAYMELRSLRSDDTAVYYCARENYYGSGSYRGGMDVWGQGTTVTVSS
VL: EIVLTQSPATLSLSPGERATLSCRASQSVSSYLAWYQQKPGQAPRLLIYDASNRATGIPARFSGSGSGTDFTLTISSLEPEDFAVYYCQQRSNWPWTFGQGTKVEIKR
notes: as for B4
Kd [10]: 394 pM | koff [10]: 0.000806 s⁻¹ | kon [10]: 2.04e+06 M⁻¹ s⁻¹ | Kd [11]: 932 pM | Kd [12]: 942 pM | Kd [13]: 804 pM

B7: 1D1 D38 (antibody, V domains shown)
VH: QVQLVQSGAEVKKPGASVKVSCKASGYSFTYYGISWVRQAPGQGLEWMGWISTYNGVTHYARMLQGRVTMTTDTSTRTAYMELRSLRSDDTAVYYCARENYYGSGSYRGGMDVWGQGTTVTVSS
VL: EIVLTQSPATLSLSPGERATLSCRASQSVSSYLAWYQQKPGQAPRLLIYDASNRATGIPARFSGSGSGTDFTLTISSLEPEDFAVYYCQQRSNWPWTFGQGTKVEIKR
notes: as for B4
Kd [10]: 440 pM | koff [10]: 0.000463 s⁻¹ | kon [10]: 1.05e+06 M⁻¹ s⁻¹ | Kd [11]: 687 pM | Kd [12]: 611 pM | Kd [13]: 1290 pM

B8: 1D1 with heavy chain mutation Y31H (antibody, V domains shown)
VH: QVQLVQSGAEVKKPGASVKVSCKASGYSFTHYGISWVRQAPGQGLEWMGWISTYNGNTNYARMLQGRVTMTTDTSTRTAYMELRSLRSDDTAVYYCARENYYGSGSYRGGMDVWGQGTTVTVSS
VL: EIVLTQSPATLSLSPGERATLSCRASQSVSSYLAWYQQKPGQAPRLLIYDASNRATGIPARFSGSGSGTDFTLTISSLEPEDFAVYYCQQRSNWPWTFGQGTKVEIK
notes: Point mutant of 1D1 CDR-H1
Kd [9]: 12700 pM

B9: 1D1 DH3 (antibody, V domains shown)
VH: QVQLVQSGAEVKKPGASVKVSCKASGYSFTYYGISWVRQAPGQGLEWMGWISTYNGNTHYAQMLQGRVTMTTDTSTRTAYMELRSLRSDDTAVYYCARENYYGSGSYRGGMDVWGQGTTVTVSS
VL: EIVLTQSPATLSLSPGERATLSCRASQSVSSYLAWYQQKPGQAPRLLIYDASNRATGIPARFSGSGSGTDFTLTISSLEPEDFAVYYCQQRSNWPWTFGQGTKVEIKR
notes: as for B4
Kd [10]: 412 pM | koff [10]: 0.00102 s⁻¹ | kon [10]: 2.49e+06 M⁻¹ s⁻¹ | Kd [11]: 560 pM | Kd [12]: 675 pM | Kd [13]: 620 pM

Binder: B10
NFκB-luciferase activity in TF-1-NFκB-luciferase cells, EC50 (DR3 on TF-1 cells): 149 pM | NFκB-luciferase activity, EC50 in the absence of isotype control antibody (DR3 on TF-1 cells): 103 pM | NFκB-luciferase activity, EC50 in the presence of isotype control antibody (DR3 on TF-1 cells): 110 pM | caspase activity in TF-1 cells with cycloheximide, EC50 (DR3 on TF-1 cells): 90 pM
